Read-outs that look alike come from different tables or passages of the source.

Data set [1] deals with NP WT (Influenza A virus A/TW/12/2001 (H1N1)) (UniProt Q07FI1). In words: SPR.
For data set [2] the target is unchanged. Description: SPR. The source holds these as a separate data set. In general terms: SPR reads the build-up and loss of mass on a sensor chip optically.

NP WT (Influenza A virus A/TW/12/2001 (H1N1)), sequence (Q07FI1 whole entry): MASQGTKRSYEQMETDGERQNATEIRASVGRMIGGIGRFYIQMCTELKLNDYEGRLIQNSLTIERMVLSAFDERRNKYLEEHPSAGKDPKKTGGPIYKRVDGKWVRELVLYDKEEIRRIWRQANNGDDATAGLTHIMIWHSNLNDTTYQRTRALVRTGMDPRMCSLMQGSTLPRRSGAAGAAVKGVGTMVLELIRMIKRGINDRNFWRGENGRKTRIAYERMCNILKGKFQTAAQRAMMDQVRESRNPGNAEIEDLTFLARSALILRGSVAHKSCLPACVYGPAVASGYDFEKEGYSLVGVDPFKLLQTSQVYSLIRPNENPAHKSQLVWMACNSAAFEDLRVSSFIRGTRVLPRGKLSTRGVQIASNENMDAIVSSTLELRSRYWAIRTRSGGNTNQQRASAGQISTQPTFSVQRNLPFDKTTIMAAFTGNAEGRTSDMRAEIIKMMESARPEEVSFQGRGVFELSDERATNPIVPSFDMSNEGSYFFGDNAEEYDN

As usually defined, the Kd is the concentration at which binding is half-saturated. High values mean lower affinity, low ones higher affinity. Regarding “UCCAAACUCCAAACUCCAAACUCCAAAC [(UCCAAAC)4 RNA]”, the Kd in data set [1] worked out at 8.27 nM; in data set [2], 10.4 nM.

The values above are taken from PMC4768256, “Using mutagenesis to explore conserved residues in the RNA-binding groove of influenza A virus nucleoprotein for antiviral drug development” (Scientific Reports, 2016).
